The values that follow come from publication PMC5490261, “The structural and functional characterization of human RecQ4 reveals insights into its helicase mechanism”.

The target in one data set is T1, RecQ4 427-1208 WT (Homo sapiens, UniProt O94761 427-1208).
T1 sequence: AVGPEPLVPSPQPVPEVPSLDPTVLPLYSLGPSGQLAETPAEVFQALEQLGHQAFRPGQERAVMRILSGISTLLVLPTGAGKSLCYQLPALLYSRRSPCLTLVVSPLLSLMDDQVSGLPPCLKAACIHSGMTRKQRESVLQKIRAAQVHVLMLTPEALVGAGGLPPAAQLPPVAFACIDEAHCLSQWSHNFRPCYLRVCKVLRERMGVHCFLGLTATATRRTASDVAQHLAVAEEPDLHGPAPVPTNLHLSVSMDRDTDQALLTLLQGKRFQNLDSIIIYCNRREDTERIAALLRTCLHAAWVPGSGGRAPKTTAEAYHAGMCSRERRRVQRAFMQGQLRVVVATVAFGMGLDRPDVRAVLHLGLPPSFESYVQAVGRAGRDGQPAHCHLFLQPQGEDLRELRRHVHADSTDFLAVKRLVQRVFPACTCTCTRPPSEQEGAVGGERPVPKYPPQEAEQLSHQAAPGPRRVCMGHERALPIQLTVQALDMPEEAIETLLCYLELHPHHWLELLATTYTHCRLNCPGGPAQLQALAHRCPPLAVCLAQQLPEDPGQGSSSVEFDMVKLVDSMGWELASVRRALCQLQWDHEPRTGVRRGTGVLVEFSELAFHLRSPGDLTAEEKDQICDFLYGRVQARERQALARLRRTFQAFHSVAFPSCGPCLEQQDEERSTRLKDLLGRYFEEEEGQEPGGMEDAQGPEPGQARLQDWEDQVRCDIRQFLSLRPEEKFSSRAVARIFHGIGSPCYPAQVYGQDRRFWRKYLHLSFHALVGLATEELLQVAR
The experiment in a line: fluorescence polarization; apparent Kd; 20 mM HEPES pH 8.0, 10 mM NaCl, 5% glycerol, 1 mM MgCl2, 0.5 mM TCEP, 0.5 nM Cy3-ssDNA; temperature not stated. As to conditions: protein: recombinant; tags: Trx-His6 removed by 3C protease; label: 5' Cy3.

A further data set concerns the target T2, RecQ4 427-1116 (Homo sapiens, UniProt O94761 427-1116).
T2 sequence: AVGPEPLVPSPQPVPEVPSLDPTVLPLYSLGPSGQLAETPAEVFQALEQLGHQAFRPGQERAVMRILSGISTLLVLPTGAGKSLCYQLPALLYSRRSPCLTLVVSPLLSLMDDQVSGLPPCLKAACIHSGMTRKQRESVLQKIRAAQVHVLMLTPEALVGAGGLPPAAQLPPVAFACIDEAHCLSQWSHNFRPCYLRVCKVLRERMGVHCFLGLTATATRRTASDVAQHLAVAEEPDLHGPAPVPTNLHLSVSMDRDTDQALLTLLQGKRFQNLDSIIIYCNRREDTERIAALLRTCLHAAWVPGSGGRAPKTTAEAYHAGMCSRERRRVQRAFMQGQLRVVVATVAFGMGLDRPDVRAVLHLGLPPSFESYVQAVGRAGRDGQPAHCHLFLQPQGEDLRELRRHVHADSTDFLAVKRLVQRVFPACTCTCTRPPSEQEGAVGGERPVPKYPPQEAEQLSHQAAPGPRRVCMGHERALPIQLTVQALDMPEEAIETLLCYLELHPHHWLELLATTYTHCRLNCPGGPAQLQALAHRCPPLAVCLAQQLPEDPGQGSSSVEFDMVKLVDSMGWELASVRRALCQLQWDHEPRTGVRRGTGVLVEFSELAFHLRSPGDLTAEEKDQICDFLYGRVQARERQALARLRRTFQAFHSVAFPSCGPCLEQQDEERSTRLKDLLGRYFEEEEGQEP
Described as above. The note with it: protein: recombinant; tags: Trx-His6 removed by 3C protease; label: 5' Cy3.

In the case of CCATTCCACCCTCTATTTTTTTTTTTTTTT (ssDNA) [T3-Cy3], the Kd was determined as 4.6 ± 0.4 nM with RecQ4 427-1208 WT and 18.1 ± 0.8 nM with RecQ4 427-1116.
